Where no end group is shown, it is not given here. The star is where a group is joined. Succinimide(1-Et,3-yl) = CCN1C(=O)CC(*)C1=O
B1: Cys-variant of stresscopin peptide with N-Ethylsuccinimide (NES) reactive group SEQ ID NO: 45 (peptide)
peptide: TKFTLSLDVPTNIMNLLFNIAKAKNLRAQAAC(Succinimide(1-Et,3-yl))NAHLMAQI-NH2
modifications: N-terminus assumed
SMILES: CC[C@H](C)[C@H](NC(=O)[C@H](CCC(N)=O)NC(=O)[C@H](C)NC(=O)[C@H](CCSC)NC(=O)[C@H](CC(C)C)NC(=O)[C@H](Cc1c[nH]cn1)NC(=O)[C@H](C)NC(=O)[C@H](CC(N)=O)NC(=O)[C@H](CSC1CC(=O)N(CC)C1=O)NC(=O)[C@H](C)NC(=O)[C@H](C)NC(=O)[C@H](CCC(N)=O)NC(=O)[C@H](C)NC(=O)[C@H](CCCNC(=N)N)NC(=O)[C@H](CC(C)C)NC(=O)[C@H](CC(N)=O)NC(=O)[C@H](CCCCN)NC(=O)[C@H](C)NC(=O)[C@H](CCCCN)NC(=O)[C@H](C)NC(=O)[C@@H](NC(=O)[C@H](CC(N)=O)NC(=O)[C@H](Cc1ccccc1)NC(=O)[C@H](CC(C)C)NC(=O)[C@H](CC(C)C)NC(=O)[C@H](CC(N)=O)NC(=O)[C@H](CCSC)NC(=O)[C@@H](NC(=O)[C@H](CC(N)=O)NC(=O)[C@@H](NC(=O)[C@@H]1CCCN1C(=O)[C@@H](NC(=O)[C@H](CC(=O)O)NC(=O)[C@H](CC(C)C)NC(=O)[C@H](CO)NC(=O)[C@H](CC(C)C)NC(=O)[C@@H](NC(=O)[C@H](Cc1ccccc1)NC(=O)[C@H](CCCCN)NC(=O)[C@@H](N)[C@@H](C)O)[C@@H](C)O)C(C)C)[C@@H](C)O)[C@@H](C)CC)[C@@H](C)CC)C(N)=O
B2: Cys-variant of stresscopin peptide with N-Ethylsuccinimide (NES) reactive group SEQ ID NO: 42 (peptide)
peptide: TKFTLSLDVPTNIMNLLFNIAKAKNLRAQAAANAHLMAQC(Succinimide(1-Et,3-yl))-NH2
modifications: N-terminus assumed
SMILES: CC[C@H](C)[C@H](NC(=O)[C@H](CC(N)=O)NC(=O)[C@H](Cc1ccccc1)NC(=O)[C@H](CC(C)C)NC(=O)[C@H](CC(C)C)NC(=O)[C@H](CC(N)=O)NC(=O)[C@H](CCSC)NC(=O)[C@@H](NC(=O)[C@H](CC(N)=O)NC(=O)[C@@H](NC(=O)[C@@H]1CCCN1C(=O)[C@@H](NC(=O)[C@H](CC(=O)O)NC(=O)[C@H](CC(C)C)NC(=O)[C@H](CO)NC(=O)[C@H](CC(C)C)NC(=O)[C@@H](NC(=O)[C@H](Cc1ccccc1)NC(=O)[C@H](CCCCN)NC(=O)[C@@H](N)[C@@H](C)O)[C@@H](C)O)C(C)C)[C@@H](C)O)[C@@H](C)CC)C(=O)N[C@@H](C)C(=O)N[C@@H](CCCCN)C(=O)N[C@@H](C)C(=O)N[C@@H](CCCCN)C(=O)N[C@@H](CC(N)=O)C(=O)N[C@@H](CC(C)C)C(=O)N[C@@H](CCCNC(=N)N)C(=O)N[C@@H](C)C(=O)N[C@@H](CCC(N)=O)C(=O)N[C@@H](C)C(=O)N[C@@H](C)C(=O)N[C@@H](C)C(=O)N[C@@H](CC(N)=O)C(=O)N[C@@H](C)C(=O)N[C@@H](Cc1c[nH]cn1)C(=O)N[C@@H](CC(C)C)C(=O)N[C@@H](CCSC)C(=O)N[C@@H](C)C(=O)N[C@@H](CCC(N)=O)C(=O)N[C@@H](CSC1CC(=O)N(CC)C1=O)C(N)=O
B3: Pegylated Cys-variant stresscopin-like peptide, NES-PEG MW20000 & DOUBLE-ENDED, SEQ ID NO: 98 (peptide)
peptide: TKFTLSLDVPTNIMNLLFNIAKAKNLRCQAAANAHLMAQI-NH2
modifications: not fully specified (residue 28); also: PEG with maleimide at both ends, peptide chains per PEG not given here
B4: Cys-variant of stresscopin peptide with N-Ethylsuccinimide (NES) reactive group SEQ ID NO: 43 (peptide)
peptide: TKFTLSLDVPTNIMNLLFNIAKAKNLRAQAAANAC(Succinimide(1-Et,3-yl))LMAQI-NH2
modifications: N-terminus assumed
SMILES: CC[C@H](C)[C@H](NC(=O)[C@H](CCC(N)=O)NC(=O)[C@H](C)NC(=O)[C@H](CCSC)NC(=O)[C@H](CC(C)C)NC(=O)[C@H](CSC1CC(=O)N(CC)C1=O)NC(=O)[C@H](C)NC(=O)[C@H](CC(N)=O)NC(=O)[C@H](C)NC(=O)[C@H](C)NC(=O)[C@H](C)NC(=O)[C@H](CCC(N)=O)NC(=O)[C@H](C)NC(=O)[C@H](CCCNC(=N)N)NC(=O)[C@H](CC(C)C)NC(=O)[C@H](CC(N)=O)NC(=O)[C@H](CCCCN)NC(=O)[C@H](C)NC(=O)[C@H](CCCCN)NC(=O)[C@H](C)NC(=O)[C@@H](NC(=O)[C@H](CC(N)=O)NC(=O)[C@H](Cc1ccccc1)NC(=O)[C@H](CC(C)C)NC(=O)[C@H](CC(C)C)NC(=O)[C@H](CC(N)=O)NC(=O)[C@H](CCSC)NC(=O)[C@@H](NC(=O)[C@H](CC(N)=O)NC(=O)[C@@H](NC(=O)[C@@H]1CCCN1C(=O)[C@@H](NC(=O)[C@H](CC(=O)O)NC(=O)[C@H](CC(C)C)NC(=O)[C@H](CO)NC(=O)[C@H](CC(C)C)NC(=O)[C@@H](NC(=O)[C@H](Cc1ccccc1)NC(=O)[C@H](CCCCN)NC(=O)[C@@H](N)[C@@H](C)O)[C@@H](C)O)C(C)C)[C@@H](C)O)[C@@H](C)CC)[C@@H](C)CC)C(N)=O
B5: Cys-variant of stresscopin peptide with N-Ethylsuccinimide (NES) reactive group SEQ ID NO: 46 (peptide)
peptide: TKFTLSLDVPTNIMNLLFNIAKAKNLRAQAC(Succinimide(1-Et,3-yl))ANAHLMAQI-NH2
modifications: N-terminus assumed
SMILES: CC[C@H](C)[C@H](NC(=O)[C@H](CCC(N)=O)NC(=O)[C@H](C)NC(=O)[C@H](CCSC)NC(=O)[C@H](CC(C)C)NC(=O)[C@H](Cc1c[nH]cn1)NC(=O)[C@H](C)NC(=O)[C@H](CC(N)=O)NC(=O)[C@H](C)NC(=O)[C@H](CSC1CC(=O)N(CC)C1=O)NC(=O)[C@H](C)NC(=O)[C@H](CCC(N)=O)NC(=O)[C@H](C)NC(=O)[C@H](CCCNC(=N)N)NC(=O)[C@H](CC(C)C)NC(=O)[C@H](CC(N)=O)NC(=O)[C@H](CCCCN)NC(=O)[C@H](C)NC(=O)[C@H](CCCCN)NC(=O)[C@H](C)NC(=O)[C@@H](NC(=O)[C@H](CC(N)=O)NC(=O)[C@H](Cc1ccccc1)NC(=O)[C@H](CC(C)C)NC(=O)[C@H](CC(C)C)NC(=O)[C@H](CC(N)=O)NC(=O)[C@H](CCSC)NC(=O)[C@@H](NC(=O)[C@H](CC(N)=O)NC(=O)[C@@H](NC(=O)[C@@H]1CCCN1C(=O)[C@@H](NC(=O)[C@H](CC(=O)O)NC(=O)[C@H](CC(C)C)NC(=O)[C@H](CO)NC(=O)[C@H](CC(C)C)NC(=O)[C@@H](NC(=O)[C@H](Cc1ccccc1)NC(=O)[C@H](CCCCN)NC(=O)[C@@H](N)[C@@H](C)O)[C@@H](C)O)C(C)C)[C@@H](C)O)[C@@H](C)CC)[C@@H](C)CC)C(N)=O
B6: Cys-variant of stresscopin peptide with N-Ethylsuccinimide (NES) reactive group SEQ ID NO: 44 (peptide)
peptide: TKFTLSLDVPTNIMNLLFNIAKAKNLRAQAAAC(Succinimide(1-Et,3-yl))AHLMAQI-NH2
modifications: N-terminus assumed
SMILES: CC[C@H](C)[C@H](NC(=O)[C@H](CCC(N)=O)NC(=O)[C@H](C)NC(=O)[C@H](CCSC)NC(=O)[C@H](CC(C)C)NC(=O)[C@H](Cc1c[nH]cn1)NC(=O)[C@H](C)NC(=O)[C@H](CSC1CC(=O)N(CC)C1=O)NC(=O)[C@H](C)NC(=O)[C@H](C)NC(=O)[C@H](C)NC(=O)[C@H](CCC(N)=O)NC(=O)[C@H](C)NC(=O)[C@H](CCCNC(=N)N)NC(=O)[C@H](CC(C)C)NC(=O)[C@H](CC(N)=O)NC(=O)[C@H](CCCCN)NC(=O)[C@H](C)NC(=O)[C@H](CCCCN)NC(=O)[C@H](C)NC(=O)[C@@H](NC(=O)[C@H](CC(N)=O)NC(=O)[C@H](Cc1ccccc1)NC(=O)[C@H](CC(C)C)NC(=O)[C@H](CC(C)C)NC(=O)[C@H](CC(N)=O)NC(=O)[C@H](CCSC)NC(=O)[C@@H](NC(=O)[C@H](CC(N)=O)NC(=O)[C@@H](NC(=O)[C@@H]1CCCN1C(=O)[C@@H](NC(=O)[C@H](CC(=O)O)NC(=O)[C@H](CC(C)C)NC(=O)[C@H](CO)NC(=O)[C@H](CC(C)C)NC(=O)[C@@H](NC(=O)[C@H](Cc1ccccc1)NC(=O)[C@H](CCCCN)NC(=O)[C@@H](N)[C@@H](C)O)[C@@H](C)O)C(C)C)[C@@H](C)O)[C@@H](C)CC)[C@@H](C)CC)C(N)=O

Target: T1, human corticotrophin releasing hormone receptor type 2 (CRHR2) (human, UniProt Q13324 1-411)
T1 sequence (looked up): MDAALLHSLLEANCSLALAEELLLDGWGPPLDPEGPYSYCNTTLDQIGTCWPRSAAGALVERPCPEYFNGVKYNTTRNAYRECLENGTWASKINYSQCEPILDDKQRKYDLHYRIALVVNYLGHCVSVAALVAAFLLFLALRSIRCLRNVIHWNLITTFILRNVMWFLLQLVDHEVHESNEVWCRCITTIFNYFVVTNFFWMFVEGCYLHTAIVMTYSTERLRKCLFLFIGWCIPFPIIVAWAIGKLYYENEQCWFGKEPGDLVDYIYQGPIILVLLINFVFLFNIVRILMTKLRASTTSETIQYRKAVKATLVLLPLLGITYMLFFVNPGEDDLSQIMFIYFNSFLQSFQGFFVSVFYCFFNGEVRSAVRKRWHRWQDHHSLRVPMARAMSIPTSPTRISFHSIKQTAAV
Assay: cell-based or functional assay

Binder	Log DR [log10]	pA50
B1	-0.01	9.48 -log10(M)
B2	~1.72	~7.75 -log10(M)
B3	0.18	9.5 -log10(M)
TKFTLSLDVPTNIMNLLFNIAKAKNLRCQAAANAHLMAQI (NES-PEG MW2000 on Cys 28; C-terminal amide (-NH2)) [Pegylated Cys-variant stresscopin-like peptide, NES-PEG MW2000, SEQ ID NO: 95]	0.43	9.31 -log10(M)
TKFTLSLDVPTNIMNLLFNIAKAKNLRCQAAANAHLMAQI (NES-PEG MW40000 on Cys 28; C-terminal amide (-NH2)) [Pegylated Cys-variant stresscopin-like peptide, NES-PEG MW40000, SEQ ID NO: 100]	1.1	8.64 -log10(M)
TKFTLSLDVPTNIMNLLFNIAKAKNLRCQAAANAHLMAQI (NES-PEG MW30000 on Cys 28; C-terminal amide (-NH2)) [Pegylated Cys-variant stresscopin-like peptide, NES-PEG MW30000, SEQ ID NO: 99]	0.8	8.94 -log10(M)
TKFTLSLDVPTNIMNLLFNIAKAKNLRCQAAANAHLMAQI (NES-PEG MW5000 on Cys 28; C-terminal amide (-NH2)) [Pegylated Cys-variant stresscopin-like peptide, NES-PEG MW5000, SEQ ID NO: 96]	1	8.74 -log10(M)
TKFTLSLDVPTNIMNLLFNIAKAKNLRCQAAANAHLMAQI (NES-PEG MW12000 on Cys 28; C-terminal amide (-NH2)) [Pegylated Cys-variant stresscopin-like peptide, NES-PEG MW12000, SEQ ID NO: 97]	~0.74	~9 -log10(M)
B4	-0.32	9.79 -log10(M)
B5	0.04	9.43 -log10(M)
B6	~1.97	~7.5 -log10(M)

From patent US20110105397A1, “METHOD FOR TREATING HEART FAILURE WITH STRESSCOPIN-LIKE PEPTIDES” (priority 2009, published 2011)
